The values below come from patent publication US20210380994A1, “LACTOCOCCUS LACTIS EXPRESSION SYSTEM FOR DELIVERING PROTEINS EFFICACIOUS FOR THE TREATMENT OF EPITHELIAL BARRIER FUNCTION DISORDERS” (Second Genome, Inc., priority 2018, published 2021).

The subject of assay [1] is HCT8 enterocyte and HT29-MTX goblet cell lines. Nature of the assay: Oris Cell Migration assay (epithelial cell wound healing). Type of assay: cell-based, human. The conditions noted are these: 48 hours; SG-11 1 μg/ml, EGF 30 ng/ml, staurosporine 100 nM; FIG. 2. The text has this: The 96 well Oris Cell Migration assay containing plugs preventing cell attachment in the center of each well was used according to the manufacturer's instructions (Platypus Technologies. Madison, Wis.).
The migration assay plates were warmed to room temperature prior to use and plugs were removed rom 100% confluence wells prior to cell addition. The HCT8 enterocyte and HT29-MTX goblet cell lines were used at a 9:1 ratio with a total of 5×10^4 total cells added per well (4.5×10^4 HCT8 cells and 0.5×10^4 HT29-MTX cells). Cells were incubated at 37° C.+5% CO2 for 24 hours. Plugs were then removed from all control and sample wells. Control wells included cells treated with the diluent vehicle as the blank, 30 ng/ml epidermal growth factor (EGF) as the positive control, and 100 nM staurosporine as the negative control, all diluted in cRPMI. Sample wells contained SG-11 protein (SEQ ID NO:9) at a concentration of 1 μg/ml diluted in eRPMI. 100% and 0% wells were cultured in cRPMI. […] The green fluorescent viability dye Calcenin AM was added to all wells at a concentration of 0.5 μg/min PBS containing 0.9 mM CaCl2 and 0.5 mM MgCl2, incubated for 30 min at 37° C.+5% CO2, the dye was removed and cells were washed in PBS containing 0.9 mM CaCl2 and 0.5 mM MgCl2, and fluorescence was measured. […] Samples were normalized between 100% and 0% samples and values expressed as a percent growth.

The test system of assay [2] is C57BL/6 mice treated with DSS. Briefly: concurrent (prophylactic) DSS model of inflammatory bowel disease (Examples 4, 13A). Type of assay: in vivo. To be noted: for 4KDa-FITC signal in serum: Example 13, first model, SG-11 (SEQ ID NO:9) 50 nmoles/kg i.p. b.i.d. (FIG. 18A, p=0.04), SG-11V5 (printed FIG. 18B, p=0.21). Here is the method: On day six, mice were fasted for four hours and then orally gavaged with 600 mg/kg 4KDa dextran labeled with fluorescein isothiocyanate (FITC) [4KDa-FITC]. One hour after the 4KDa-FITC gavage, mice were euthanized, blood was collected, and FITC signal was measured in serum. […] The magnitude of 4KDa-FITC dextran translocation observed for SG-11 was similar to the positive control of Gly2-GLP2. Results are shown in FIG. 3, and are presented as mean±SEM. The graph in FIG. 3 represents data pooled from 3 independent experiments, each using 10 mice (n=30).
SG-11 was also assessed for its effects on the levels of lipopolysaccharide (LPS) binding protein (LBP) in the blood of the DSS animal with and without SG-11 administration. LBP, which has been linked to clinical disease activity in subjects with inflammatory bowel disease, was also measured by […] in the serum of mice tested in the DSS model described in this Example. […] Results are shown in FIG. 4, and are presented as mean±SEM. The graph in FIG. 4 represents data pooled from 3 independent experiments (n=30; each experiment using 10 mice).
Body weight was measured daily from mice included in the DSS model described in this Example. Percent change from starting weight on day 0 was determined for each mouse. […] Weight loss in mice treated with SG-11 at day 6 was similar to weight loss observed with Gly2-GLP2. The graph in FIG. 5 represents data pooled from two independent experiments (n=20; each experiment using 10 mice).
Gross pathology observations were made in mice included in the concurrent DSS model performed in this Example. […] No differences in clinical scores were observed between mice given DSS and treated with either Gly2-GLP2 or SG-11. The scoring system used was: (0)=no gross pathology, (1)=streaks of blood visible in feces, (2)=completely bloody fecal pellets, (3) bloody fecal material visible in cecum, (4) bloody fecal material in cecum and loose stool, (5)=rectal bleeding. The graph in FIG. 6 represents data pooled from 3 independent experiments (n=30; each experiment using 10 mice).
In addition, histopathology analysis was performed on proximal and distal colon tissues from the DSS model animals. […] LMA Loss of mucosal architecture, Edema=Edema, INF=Inflammation. TMI=Transmural inflammation, MH=Mucosal hyperplasia, DYS=Dysplasia. Graphs represent data pooled from two independent experiments, and are plotted as mean±SEM. Statistical analysis was performed by a one-way ANOVA compared to DSS+vehicle followed by a Fisher's LSD test for multiple comparisons.
Colon length was measured in mice included in the DSS model described above. […] The graphs in FIGS. 8A and 8B represent data pooled from 3 independent experiments (n=30). Data are graphed as mean SEM and are pooled from three independent experiments (n=30; each experiment using 10 mice). Statistical analysis was performed by a one-way ANOVA followed by a Fisher's LSD multiple comparisons test.
Briefly, in the first DSS mouse model (Example 13A), mice were treated on day zero with test compound intraperitoneally (i.p.) and 6 hours later DSS treatment was initiated. Doses administered included 50 nmoles/kg for SG-11 (SEQ ID NO:9) ([…]), and Gly2-GLP2 (0.2 mg/kg), and a dose response for SG-11V5 (SEQ ID NO:19) including 16 nmoles/kg ([…]), 50 nmoles/kg ([…]) and 158 nmoles/kg (4.0 mg/kg). […] Therapeutic protein treatments were administered twice a day for the duration of the DSS exposure.
At the end of each DSS model study, mice were fasted for 4 hours and then orally gavaged with 600 mg/kg 4KDa dextran labeled with FITC [4KDa-FITC]. One hour after the 4KDa-FITC gavage, mice were euthanized, blood was collected, and FITC signal was measured in serum. […] Data in both graphs are plotted as mean±SEM and each figure represent data from an individual experiment (n=10 per group).
Upon completion of the OSS models above. […]

The mark [3] stands for this setting: Example 4, 50 nmoles/kg i.p. b.i.d.
Setting [4] is: Example 4, 50 nmoles/kg i.p. b.i.d., vs DSS + vehicle.

B1: SG-11: Roseburia hominis protein comprising SEQ ID NO:3; tested as SEQ ID NO:5, SEQ ID NO:7 or FLAG-tagged SEQ ID NO:9 (protein, listed as Rosburia hominis)
chain: LEGEESVVYVGKKGVIASLDVETLDQSYYDETELKSYVDAEVEDYTAEHGKNAVKVESLKVEDGVAKLKMKYKTPEDYTAFNGIELYQGKVVASLAAGYVYDGEFARVEEGKVVGAATKQDIYSEDDLKVAIIRANTDVKVDGEICYVSCQNVKLTGKDSVSIRDGYYLETGSVTASVDVTGQESVGTEQLSGTEQMEMTGEPVNADDTEQTEAAAGDGSFETDVYTFIVYK
With B1, the “percent growth (epithelial cell wound healing)” value in assay [1] is “significant increase in growth”. Moreover, in assay [2] (setting [3]), the colon length result is given as “prevented colon shortening elicited by DSS”; the “colon weight to length ratio” value is “significant improvement in colon weight to length ratios”; the “histopathology: edema score of colon” value is reported as “reduced edema to a similar level as Gly2-GLPs, though the difference did not reach statistical significance”. Besides, the “4KDa-FITC dextran translocation across the epithelial barrier (serum)” value in assay [2] (Example 4, 50 nmoles/kg i.p. b.i.d., 2.5% DSS 6 days, vs DSS + vehicle) was “significant reduction in 4KDa-FITC dextran”. For the same molecule, in assay [2] (setting [4]), the body weight entry is “significantly improved body weight”, the “gross pathology (clinical score 0-5)” value is reported as “significantly improved gross pathology” and the “serum LPS binding protein (LBP) concentration” value is “significant reduction in LBP”. In assay [2], the “4KDa-FITC signal in serum” value was “significantly reduced the 4KDa-FITC signal”. The colon length result in assay [2] (Example 13A (FIG. 22A)) is “significant increase in the colon length”.

B2: SG-11V5: variant of SEQ ID NO:7 with N53S, N83S, C147V, C151S (protein)
chain: MLEGEESVVYVGKKGVIASLDVETLDQSYYDETELKSYVDAEVEDYTAEHGKSAVKVESLKVEDGVAKLKMKYKTPEDYTAFSGIELYQGKVVASLAAGYVYDGEFARVEEGKVVGAATKQDIYSEDDLKVAIIRANTDVKVDGEIVYVSSQNVKLTGKDSVSIRDGYYLETGSVTASVDVTGQESVGTEQLSGTEQMEMTGEPVNADDTEQTEAAAGDGSFETDVYTFIVYK
modifications: Artificial variant of SG-11 (N53S, N83S, C147V, C151S)
As for B2, the “4KDa-FITC signal in serum” value in assay [2] is recorded as “reduced the 4KDa-FITC signal, although the difference did not reach statistical significance”. Further, the “gross pathology (clinical score 0-5)” value in assay [2] (Example 13, 160 nmoles/kg dose, p<0.002) was “significant improvement”. Moreover, the colon length entry in assay [2] (Example 13A (FIG. 22A)) is “significant increase in the colon length”. Also, the body weight result in assay [2] (Example 13A, 158 nmoles/kg, day 6) is on record as “significant improvement in body weight”. The “serum LBP” value in assay [2] (Example 13A, 158 nmoles/kg, p=0.003) is on record as “significant reduction in LBP production”.
